Where a chain is given by its changes, count along the chain named. Names and notes keep the numbering of the source.

The record followed here is article PMC12159676, “An uncharacterized gene from the Actinobacillus genus encodes a glucosyltransferase with successive transfer activity and unique substrate specificity” (The Journal of Biological Chemistry, 2025).

The series deals with the molecule itself. Put plainly: SEC; gel-filtration chromatography of purified AmGGT and its mutants, with protein size markers; self-association, dimer against monomer.

B1: Actinobacillus minor glucoside-glucosyltransferase (AmGGT), wild type (enzyme, Actinobacillus minor NM305, UniProt C5RYK2 1-341, looked up)
chain: MSNITFYFPFGHVPTYGGDFVNLEHIRALNKHGFSAKVILMKNQIPIVIESFPKDIPVVFYKPGMELNAQDVFVLSEGVRIMYSGLAQTQAFRVIVHNQNPFYTHTGMDSAHDINRYRITKIITPSHYTVKKLEEMGITKPMAVISPYIPEYFKPAEKSNEEIRITYSRRKREEESKILLFYLRSLYRGKKALHIRNLTNYKREEVAEEMSKAHIYASFAERESLGLMALEAMASGCHVVGFSGFTDFENQDVFNEENGDWVKEGEYKKFAEKLIEAIEQIENNTPSPKIENGLALVNSRFRQDRFEQEVVRVYQDILDNLPPLEGFNESDKVVLDFWHFD
notes: AmGGT, product of the ORF AM305_00150 of Actinobacillus minor strain NM305; ORF retrieved from NCBI, chemically synthesized, cloned into pET47b; The whole ORF was cloned; residues left over from the 3C protease site after cleavage are not described; also called AM305_00150 protein; WT AmGGT; source: E. coli BL21(DE3), purified (Ni-Sepharose, 3C protease cleavage, gel filtration; also HiTrapQ ion …)
As to B1, the stoichiometry N (as a rule, a count of units in the complex or per binding partner) is 2.

B2: AmGGT S185A mutant (enzyme)
chain: B1 chain with S185A
notes: AmGGT, product of the ORF AM305_00150 of Actinobacillus minor strain NM305, with S185A; Production of the mutants is not described separately; source: E. coli BL21(DE3), purified (as told for the AmGGT protein); not shown: His6, N-terminal, cleaved
For B2, the binding result was “binds”.

B3: AmGGT E135A mutant (enzyme)
chain: B1 chain with E135A
notes: AmGGT, product of the ORF AM305_00150 of Actinobacillus minor strain NM305, with E135A; Production of the mutants is not described separately; source: E. coli BL21(DE3), purified (as told for the AmGGT protein); not shown: His6, N-terminal, cleaved
In the case of B3, the binding result was “binds”.
